Data taken from patent US20220348609A1 (University of Washington, published 2022).

Columns and labels:
[1] = target: T1, human αvβ6 integrin on cells (A431 carcinoma cells; K562 cells stably transfected with αvβ6) (human, UniProt P06756 31-1048; P18564 22-788); test: row 'X(selectivity)' of the drawn table: αvβ6 over αvβ8, cell surface competition assay
T1 construct: whole, on cells; Endogenous on A431 cells, transfected on K562 cells; also called αvβ6(+) cells; K562 avb6 transfected clone A4

[2] = target: T2, human αvβ6 integrin, soluble protein (biotinylated for yeast display; in solution for BLI) (human, UniProt P06756 31-992; P18564 22-707, limits assumed, biotinylated in the yeast display experiments (site not stated)); test: yeast surface display, flow cytometry, 50 pM biotinylated αvβ6 stained with SAPE
T2 construct: also called avb6; alpha(v) beta (6) integrin
Text: Yeast Display: Standard yeast surface display techniques were used to screen designs for binding and directed evolution. Genes encoding the designs were cloned into petcon2 in frame with N-term aga2 and C-term myc tag. Surface expression of Myc was detected using Anti-C Myc antibody and binding was detected by using biotinylated human αᵥβ₆ and stained with phycoerythrin conjugated streptavidin for FACS. Two different buffers were used for the binding and washing steps for yeast display: Binding Buffer 20 mM TRIS, 150 mM NaCl, pH=8.0, 1% BSA, 1 mM Ca(II) and 1 mM Mg(II), Wash Buffer: 20 mM TRIS, 150 mM NaCl, pH=8.0, 0.5% BSA, 1 mM Ca(II) and 1 mM Mg(II).

[3] = target: T2, human αvβ6 integrin, soluble protein …; test: BLI (Octet RED96), His-tagged binder on Ni-NTA sensor, αvβ6 in solution
[4] = target: T2, human αvβ6 integrin, soluble protein …; test: as above; remark: listed apart in the source
Experimental: Data was collected on an Octet™ RED96 (Forte Bio) and processed using the instrument's software. His Tagged protein binders were immobilized on Ni-NTA octet sensors. The tips are then dipped into wells containing different concentrations of αᵥβ₆. Association and dissociation steps were recorded for 900 s and 1200 s respectively. An empty sensor with no loaded binding protein was included to discard any non-specific binding of αᵥβ₆ to the octet tip.

[5] = target: T1, human αvβ6 integrin on cells (A431 …); test: flow cytometry titration of AF488-labelled binder on A431 cells, 5 hours at 4° C., one site-specific binding fit
Text: We set out to test the ability of these binders to bind to αᵥβ₆(+) cells and block TGF-β mediated downstream signaling. We generated fluorescently labelled BP1 and BP2 by conjugating Alexafluor-488 to an engineered C-term cysteine via maleimide chemistry. The fluorescently labelled proteins were titrated against αᵥβ₆ positive human epidermoid carcinoma A431 cells.
Epidermoid cancer cells (A431) and human embryonic kidney 293T cells (HEK 293T) were purchased from American Type Culture Collection (ATCC) and grown in Dulbecco's Modified Eagle Medium (DMEM, Gibco) supplemented with 10% fetal bovine serum (FBS, Gibco) in a humidified atmosphere with 5% CO2 at 37° C. Binding assays were performed on A431 carcinoma cells. A431 cells were dissociated from culture flasks with enzyme-free cell dissociation buffer (Gibco). Varying concentrations of AG-AF488 and E13T-AF488 were incubated with 5×10^4 A431 cells in 1×TBS with 0.1% BSA, 1 mM Ca2+, and 1 mM Mg2+ (BTBS) rotating in suspension for 5 hours at 4° C. Sufficient incubation volumes were used to avoid >5% ligand depletion. After incubation, cells were washed with BTBS and analyzed by flow cytometry on an Accuri™ C6 instrument (BD Biosciences), and data were quantified using FlowJo™ software (TreeStar). Kd values were determined by fitting the data to a one site—specific binding curve using Prism™ 7 (GraphPad Software).

T1 sequence (P06756 31-1048, chain 1 of 2): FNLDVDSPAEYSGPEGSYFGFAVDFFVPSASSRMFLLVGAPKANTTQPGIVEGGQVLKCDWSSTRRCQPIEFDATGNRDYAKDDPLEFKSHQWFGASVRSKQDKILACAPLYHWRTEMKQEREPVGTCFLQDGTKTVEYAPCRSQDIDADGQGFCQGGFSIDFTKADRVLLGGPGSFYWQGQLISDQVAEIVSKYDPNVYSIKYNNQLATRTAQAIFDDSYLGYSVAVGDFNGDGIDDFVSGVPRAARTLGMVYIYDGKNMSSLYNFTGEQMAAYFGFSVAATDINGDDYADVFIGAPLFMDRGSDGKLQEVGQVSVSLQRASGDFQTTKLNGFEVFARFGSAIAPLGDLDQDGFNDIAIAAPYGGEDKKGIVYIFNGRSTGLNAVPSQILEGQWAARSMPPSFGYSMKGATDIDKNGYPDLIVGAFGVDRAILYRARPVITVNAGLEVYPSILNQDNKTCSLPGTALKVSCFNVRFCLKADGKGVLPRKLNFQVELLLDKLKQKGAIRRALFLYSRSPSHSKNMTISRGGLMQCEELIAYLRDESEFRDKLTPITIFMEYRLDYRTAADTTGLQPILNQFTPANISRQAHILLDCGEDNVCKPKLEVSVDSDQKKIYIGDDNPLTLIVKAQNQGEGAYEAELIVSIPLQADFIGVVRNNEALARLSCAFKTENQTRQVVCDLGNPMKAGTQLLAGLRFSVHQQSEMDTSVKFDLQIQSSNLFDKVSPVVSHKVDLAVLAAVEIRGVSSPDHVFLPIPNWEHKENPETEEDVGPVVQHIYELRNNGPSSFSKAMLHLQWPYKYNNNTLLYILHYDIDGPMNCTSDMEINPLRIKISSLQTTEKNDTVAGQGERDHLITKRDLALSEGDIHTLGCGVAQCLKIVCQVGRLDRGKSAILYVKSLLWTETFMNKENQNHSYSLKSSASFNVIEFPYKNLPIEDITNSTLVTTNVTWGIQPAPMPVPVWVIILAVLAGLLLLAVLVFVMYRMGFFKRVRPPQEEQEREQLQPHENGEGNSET
T1 sequence (P18564 22-788, chain 2 of 2): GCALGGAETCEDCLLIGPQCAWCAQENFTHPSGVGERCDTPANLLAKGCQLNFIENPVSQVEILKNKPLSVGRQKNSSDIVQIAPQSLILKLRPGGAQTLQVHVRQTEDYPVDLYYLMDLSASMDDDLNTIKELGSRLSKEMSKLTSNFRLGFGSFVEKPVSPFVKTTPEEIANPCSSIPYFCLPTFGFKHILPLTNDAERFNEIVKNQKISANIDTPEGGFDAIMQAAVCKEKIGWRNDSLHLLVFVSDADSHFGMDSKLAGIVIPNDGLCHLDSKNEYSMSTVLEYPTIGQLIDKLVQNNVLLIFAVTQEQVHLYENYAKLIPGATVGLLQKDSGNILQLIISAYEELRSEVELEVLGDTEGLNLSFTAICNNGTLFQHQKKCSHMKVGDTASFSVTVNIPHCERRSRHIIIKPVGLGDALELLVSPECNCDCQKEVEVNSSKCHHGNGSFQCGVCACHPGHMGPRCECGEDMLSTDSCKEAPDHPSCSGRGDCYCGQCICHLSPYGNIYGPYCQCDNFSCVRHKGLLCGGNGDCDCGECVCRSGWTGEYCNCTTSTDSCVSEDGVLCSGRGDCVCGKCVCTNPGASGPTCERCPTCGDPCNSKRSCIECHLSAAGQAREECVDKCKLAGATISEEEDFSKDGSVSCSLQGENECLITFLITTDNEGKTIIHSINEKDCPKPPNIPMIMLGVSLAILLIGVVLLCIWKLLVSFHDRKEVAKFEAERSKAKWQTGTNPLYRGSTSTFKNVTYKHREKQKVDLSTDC
T2 sequence (P06756 31-992 limits assumed, chain 1 of 2): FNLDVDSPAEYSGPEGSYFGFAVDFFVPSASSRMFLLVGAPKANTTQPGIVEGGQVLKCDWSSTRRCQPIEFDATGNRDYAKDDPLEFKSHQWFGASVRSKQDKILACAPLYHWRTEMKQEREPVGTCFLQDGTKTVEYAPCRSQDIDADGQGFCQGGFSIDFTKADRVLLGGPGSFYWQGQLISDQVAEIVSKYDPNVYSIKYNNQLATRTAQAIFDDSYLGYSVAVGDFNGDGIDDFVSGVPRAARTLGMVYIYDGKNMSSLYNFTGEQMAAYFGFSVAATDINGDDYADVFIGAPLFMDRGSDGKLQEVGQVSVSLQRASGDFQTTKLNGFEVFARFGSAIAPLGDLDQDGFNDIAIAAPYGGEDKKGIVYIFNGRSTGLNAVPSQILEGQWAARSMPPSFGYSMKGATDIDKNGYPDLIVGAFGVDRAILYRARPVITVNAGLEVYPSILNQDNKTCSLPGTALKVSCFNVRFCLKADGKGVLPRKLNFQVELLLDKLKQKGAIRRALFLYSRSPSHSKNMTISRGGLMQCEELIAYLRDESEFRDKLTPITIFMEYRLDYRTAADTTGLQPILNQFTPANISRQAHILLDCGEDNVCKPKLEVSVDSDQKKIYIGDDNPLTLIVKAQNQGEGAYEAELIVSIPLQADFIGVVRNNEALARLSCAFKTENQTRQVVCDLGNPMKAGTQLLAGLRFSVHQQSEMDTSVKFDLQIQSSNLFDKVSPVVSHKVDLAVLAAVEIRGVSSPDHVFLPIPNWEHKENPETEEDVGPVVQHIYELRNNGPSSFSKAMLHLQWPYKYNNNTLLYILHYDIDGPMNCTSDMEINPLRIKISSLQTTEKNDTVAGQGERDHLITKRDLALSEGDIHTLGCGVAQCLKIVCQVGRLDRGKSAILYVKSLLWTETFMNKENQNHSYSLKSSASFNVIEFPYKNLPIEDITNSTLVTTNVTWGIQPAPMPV
T2 sequence (P18564 22-707 limits assumed, chain 2 of 2): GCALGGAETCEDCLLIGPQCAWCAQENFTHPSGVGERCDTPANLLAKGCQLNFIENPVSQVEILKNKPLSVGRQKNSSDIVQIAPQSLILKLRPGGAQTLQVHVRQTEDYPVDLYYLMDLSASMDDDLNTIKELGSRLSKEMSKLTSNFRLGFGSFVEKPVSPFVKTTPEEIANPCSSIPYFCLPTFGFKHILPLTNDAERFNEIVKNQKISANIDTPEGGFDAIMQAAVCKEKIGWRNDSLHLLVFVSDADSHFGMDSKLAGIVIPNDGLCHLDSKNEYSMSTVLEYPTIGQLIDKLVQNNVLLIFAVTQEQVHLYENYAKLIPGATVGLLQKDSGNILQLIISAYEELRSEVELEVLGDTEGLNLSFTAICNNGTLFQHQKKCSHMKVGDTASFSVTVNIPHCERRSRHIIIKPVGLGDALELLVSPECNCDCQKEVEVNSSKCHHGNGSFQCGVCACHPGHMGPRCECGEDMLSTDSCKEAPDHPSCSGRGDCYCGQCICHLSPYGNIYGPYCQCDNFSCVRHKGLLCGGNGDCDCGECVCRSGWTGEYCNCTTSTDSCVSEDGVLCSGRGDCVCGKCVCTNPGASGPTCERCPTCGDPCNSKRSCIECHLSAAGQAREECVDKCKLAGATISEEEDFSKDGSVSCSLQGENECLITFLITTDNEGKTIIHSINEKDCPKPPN

Row | binding result [2] | Kd [4] | Binder | further results
1 | binds | – | av6_16 (designed binder) single chain: MAVVRFVFRGDLAELMLRAVKDHLKKEGPHWNITSVESSQVELVVRGIHESDAKRIAKWARLKFPGTDTRIEV | –
2 | binds | – | av6_5 (designed binder) single chain: MAVVRFVFRGDLAELMLRAVKDHLKKEGPHWNITSDESGFELVVRGIHESDAKRIARTVEKLTNGKSQSLVLT | –
3 | binds | – | av6_8 (designed binder) single chain: MAVVRFVFRGDLAELMLRAVKDHLKKEGPHWNITSDESGFELVVRGIHESDAKRIAKWARLKFPGTDTRIEVR | –
4 | – | 0.38 nM | av6_3 M15R (designed binder, not shown: C-terminal His tag (pET29b, NdeI/XhoI)) MAVVRFVFRGDLAELRLRAVKDHLKKEGPHWNITSTNNGAELVVRGIHESDAKRIAKWVEKRFPGVHTETQQD | –
5 | – | 0.404 nM | av6_3 M15RG64R (designed binder, not shown: C-terminal His tag (pET29b, NdeI/XhoI)) MAVVRFVFRGDLAELRLRAVKDHLKKEGPHWNITSTNNGAELVVRGIHESDAKRIAKWVEKRFPRVHTETQQD | –
6 | – | 0.42 nM | av6_3 E13TM15RA39KG64R (designed binder, not shown: C-terminal His tag (pET29b, NdeI/XhoI)) MAVVRFVFRGDLATLRLRAVKDHLKKEGPHWNITSTNNGKELVVRGIHESDAKRIAKWVEKRFPRVHTETQQD | –
7 | – | 0.47 nM | av6_3 G64R (designed binder, not shown: C-terminal His tag (pET29b, NdeI/XhoI)) MAVVRFVFRGDLAELMLRAVKDHLKKEGPHWNITSTNNGAELVVRGIHESDAKRIAKWVEKRFPRVHTETQQD | –
8 | binds | – | av6_13 (designed binder) single chain: MAVVRFVFRGDLAELMLRAVKDHLKKEGPHWNITSVESSQVELVVRGIHESDAKRIARTVEKLTNGKSQSLVL | –

The remaining lines, values behind:

Row | Binder | binding result [2] | Kd [4] | further results
9 | evolved variant from the first round of design (02_E2V_T12A_E40V_S44I_T63I) (designed binder, No substitutions were applied here; also called original crystallized variant) AVVRFVFRGDLAELMLRAVKDHLKKEGPHWNITSRGNELVVRGIHESDAKRIQKEFPSVQSTIQA | – | – | X(selectivity) [1]: 3 X
10 | av6_12 (designed binder) single chain: MAVVRFVFRGDLAELMLRAVKDHLKKEGPHWNITSDTSKGAELVVRGIHESDAKRIAKWARLKFPGTDTRIEV | binds | – | –
11 | av6_11 (designed binder, Yeast display: Aga2 fusion with C-terminal myc tag; also purified from E. coli with C-terminal His tag) MAVVRFVFRGDLAELMLRAVKDHLKKEGPHWNITSDTSKGAELVVRGIHESDAKRIAKWVEKRFPGVHTETQQ | – | – | X(selectivity) [1]: 8 X
12 | av6_15 (designed binder, Yeast display: Aga2 fusion with C-terminal myc tag; also purified from E. coli with C-terminal His tag) MAVVRFVFRGDLAELMLRAVKDHLKKEGPHWNITSVESSQVELVVRGIHESDAKRIAKWVEKRFPGVHTETQQ | – | – | X(selectivity) [1]: 6 X
13 | av6_1 (designed binder) single chain: MAVVRFVFRGDLAELMLRAVKDHLKKEGPHWNITSTNNGAELVVRGIHESDAKRIARTVEKLTNGKSQSLVLT | binds | – | –
14 | av6_4 (designed binder) single chain: MAVVRFVFRGDLAELMLRAVKDHLKKEGPHWNITSTNNGAELVVRGIHESDAKRIAKWARLKFPGTDTRIEVR | binds | – | –
15 | av6_3 (designed binder, the purified protein (BLI, cell assays) carries a C-terminal His tag; also called αv6_3; original unevolved av6_3; not shown: C-terminal His tag of the purified protein (pET29b, NdeI/XhoI)) MAVVRFVFRGDLAELMLRAVKDHLKKEGPHWNITSTNNGAELVVRGIHESDAKRIAKWVEKRFPGVHTETQQD | – | – | apparent Kd (pooled screen) [3]: 1.18 nM; X(selectivity) [1]: 14 X
16 | av6_7 (designed binder, Yeast display: Aga2 fusion with C-terminal myc tag; also purified from E. coli with C-terminal His tag) MAVVRFVFRGDLAELMLRAVKDHLKKEGPHWNITSDESGFELVVRGIHESDAKRIAKWVEKRFPGVHTETQQD | – | – | X(selectivity) [1]: 1.5 X
17 | BP1 labelled with Alexa Fluor 488 on an engineered C-terminal cysteine (designed binder, Alexa Fluor 488 C5 maleimide on the engineered C-terminal cysteine, also called E13T-AF488; fluorescently labelled BP1; not shown: engineered C-terminal cysteine and any tag) MAVVRFVFRGDLATLMLRAVKDHLKKEGPHWNITSTNNGAELVVRGIHESDAKRIAKWVEKRFPGVHTETQQD | – | – | Kd [5]: 0.167 nM
18 | av6_3 E13TG64R (designed binder, not shown: C-terminal His tag (pET29b, NdeI/XhoI)) MAVVRFVFRGDLATLMLRAVKDHLKKEGPHWNITSTNNGAELVVRGIHESDAKRIAKWVEKRFPRVHTETQQD | – | 0.398 nM | –
19 | BP2 labelled with Alexa Fluor 488 on an engineered C-terminal cysteine (designed binder, Alexa Fluor 488 C5 maleimide on the engineered C-terminal cysteine, also called AG-AF488; fluorescently labelled BP2; not shown: engineered C-terminal cysteine and any tag) MAVVRFVFRGDLAELMLRAVKDHLKKEGPHWNITSTNNGKELVVRGIHESDAKRIAKWVEKRFPRVHTETQQD | – | – | Kd [5]: 0.03 nM
20 | av6_3 E13TM15RA39K (designed binder, not shown: C-terminal His tag (pET29b, NdeI/XhoI)) MAVVRFVFRGDLATLRLRAVKDHLKKEGPHWNITSTNNGKELVVRGIHESDAKRIAKWVEKRFPGVHTETQQD | – | 0.397 nM | –
21 | av6_3 A39K (designed binder, not shown: C-terminal His tag (pET29b, NdeI/XhoI)) MAVVRFVFRGDLAELMLRAVKDHLKKEGPHWNITSTNNGKELVVRGIHESDAKRIAKWVEKRFPGVHTETQQD | – | 0.411 nM | –
22 | av6_9 (designed binder, Yeast display: Aga2 fusion with C-terminal myc tag; also purified from E. coli with C-terminal His tag) MAVVRFVFRGDLAELMLRAVKDHLKKEGPHWNITSDTSKGAELVVRGIHESDAKRIARTVEKLTNGKSQSLVL | – | – | X(selectivity) [1]: 3 X
